B1: E3 ubiquitin-protein ligase RNF8 (Homo sapiens), O76064 (parent)
chain: MGEPGFFVTGDRAGGRSWCLRRVGMSAGWLLLEDGCEVTVGRGFGVTYQLVSKICPLMISRNHCVLKQNPEGQWTIMDNKSLNGVWLNRARLEPLRVYSIHQGDYIQLGVPLENKENAEYEYEVTEEDWETIYPCLSPKNDQMIEKNKELRTKRKFSLDELAGPGAEGPSNLKSKINKVSCESGQPVKSQGKGEVASTPSDNLDPKLTALEPSKTTGAPIYPGFPKVTEVHHEQKASNSSASQRSLQMFKVTMSRILRLKIQMQEKHEAVMNVKKQTQKGNSKKVVQMEQELQDLQSQLCAEQAQQQARVEQLEKTFQEEEQHLQGLEIAQGEKDLKQQLAQALQEHWALMEELNRSKKDFEAIIQAKNKELEQTKEEKEKMQAQKEEVLSHMNDVLENELQCIICSEYFIEAVTLNCAHSFCSYCINEWMKRKIECPICRKDIKSKTYSLVLDNCINKMVNNLSSEVKERRIVLIRERKAKRLF

Variants of: B1
Details: with chd4_human CHD4, Q14839
Chain of chd4_human CHD4, Q14839 (Q14839 whole entry): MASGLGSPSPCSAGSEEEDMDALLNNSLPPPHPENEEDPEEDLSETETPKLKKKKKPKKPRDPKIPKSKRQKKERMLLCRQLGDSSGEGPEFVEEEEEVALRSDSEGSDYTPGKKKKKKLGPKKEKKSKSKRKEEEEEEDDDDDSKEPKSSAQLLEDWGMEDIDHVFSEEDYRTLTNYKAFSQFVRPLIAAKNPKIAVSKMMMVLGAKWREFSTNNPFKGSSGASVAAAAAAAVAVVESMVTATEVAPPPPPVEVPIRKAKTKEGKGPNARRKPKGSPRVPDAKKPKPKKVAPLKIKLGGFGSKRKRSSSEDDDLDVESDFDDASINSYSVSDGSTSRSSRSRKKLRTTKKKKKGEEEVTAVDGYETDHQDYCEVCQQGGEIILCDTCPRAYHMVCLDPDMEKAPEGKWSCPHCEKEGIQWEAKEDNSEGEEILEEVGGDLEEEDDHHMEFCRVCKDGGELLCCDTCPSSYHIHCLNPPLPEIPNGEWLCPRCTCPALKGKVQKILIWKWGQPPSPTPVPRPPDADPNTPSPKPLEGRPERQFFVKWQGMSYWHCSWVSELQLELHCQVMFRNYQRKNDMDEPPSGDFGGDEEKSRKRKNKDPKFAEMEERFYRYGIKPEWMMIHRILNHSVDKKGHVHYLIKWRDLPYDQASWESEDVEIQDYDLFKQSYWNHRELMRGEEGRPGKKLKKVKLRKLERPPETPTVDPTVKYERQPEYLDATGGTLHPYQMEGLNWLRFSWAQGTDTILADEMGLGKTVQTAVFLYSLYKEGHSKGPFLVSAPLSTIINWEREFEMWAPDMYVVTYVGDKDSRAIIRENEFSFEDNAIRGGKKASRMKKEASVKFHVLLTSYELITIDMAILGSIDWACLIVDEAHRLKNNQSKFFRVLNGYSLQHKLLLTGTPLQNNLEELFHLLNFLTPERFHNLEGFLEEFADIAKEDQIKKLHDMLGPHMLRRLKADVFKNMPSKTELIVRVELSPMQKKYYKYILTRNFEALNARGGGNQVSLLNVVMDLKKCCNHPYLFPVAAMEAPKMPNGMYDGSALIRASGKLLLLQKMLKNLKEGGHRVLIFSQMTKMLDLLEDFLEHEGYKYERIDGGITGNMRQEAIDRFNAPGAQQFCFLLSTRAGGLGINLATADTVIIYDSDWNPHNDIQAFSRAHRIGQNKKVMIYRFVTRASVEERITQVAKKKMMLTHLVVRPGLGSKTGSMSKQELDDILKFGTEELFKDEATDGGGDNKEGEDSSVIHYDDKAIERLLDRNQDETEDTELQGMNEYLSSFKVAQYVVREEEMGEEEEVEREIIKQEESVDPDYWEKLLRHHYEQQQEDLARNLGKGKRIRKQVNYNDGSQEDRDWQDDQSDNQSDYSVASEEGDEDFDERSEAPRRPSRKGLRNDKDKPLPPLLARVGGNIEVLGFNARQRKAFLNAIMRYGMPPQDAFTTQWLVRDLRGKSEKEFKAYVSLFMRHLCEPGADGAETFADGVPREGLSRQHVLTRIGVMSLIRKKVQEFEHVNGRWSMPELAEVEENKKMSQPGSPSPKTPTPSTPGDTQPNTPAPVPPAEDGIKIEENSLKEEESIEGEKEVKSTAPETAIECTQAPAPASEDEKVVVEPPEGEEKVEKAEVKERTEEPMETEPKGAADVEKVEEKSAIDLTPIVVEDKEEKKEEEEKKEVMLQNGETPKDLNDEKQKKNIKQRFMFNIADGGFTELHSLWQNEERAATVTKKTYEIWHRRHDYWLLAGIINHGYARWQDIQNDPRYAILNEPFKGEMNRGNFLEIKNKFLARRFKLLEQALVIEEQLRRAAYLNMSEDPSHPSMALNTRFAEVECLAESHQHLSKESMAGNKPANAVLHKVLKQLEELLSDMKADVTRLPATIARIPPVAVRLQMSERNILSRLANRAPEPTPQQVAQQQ

Variant	effect of a mutation on the interaction
MGEPGFFVTGDRAGGRSWCLRRVGMSAGWLLLEDGCEVTVGAGFGVTYQLVSKICPLMISRNHCVLKQNPEGQWTIMDNKSLNGVWLNRARLEPLRVYSIHQGDYIQLGVPLENKENAEYEYEVTEEDWETIYPCLSPKNDQMIEKNKELRTKRKFSLDELAGPGAEGPSNLKSKINKVSCESGQPVKSQGKGEVASTPSDNLDPKLTALEPSKTTGAPIYPGFPKVTEVHHEQKASNSSASQRSLQMFKVTMSRILRLKIQMQEKHEAVMNVKKQTQKGNSKKVVQMEQELQDLQSQLCAEQAQQQARVEQLEKTFQEEEQHLQGLEIAQGEKDLKQQLAQALQEHWALMEELNRSKKDFEAIIQAKNKELEQTKEEKEKMQAQKEEVLSHMNDVLENELQCIICSEYFIEAVTLNCAHSFCSYCINEWMKRKIECPICRKDIKSKTYSLVLDNCINKMVNNLSSEVKERRIVLIRERKAKRLF [R42A]	increasing interaction
MGEPGFFVTGDRAGGRSWCLRRVGMSAGWLLLEDGCEVTVGRGFGVTYQLVSKICPLMISRNHCVLKQNPEGQWTIMDNKSLNGVWLNRARLEPLRVYSIHQGDYIQLGVPLENKENAEYEYEVTEEDWETIYPCLSPKNDQMIEKNKELRTKRKFSLDELAGPGAEGPSNLKSKINKVSCESGQPVKSQGKGEVASTPSDNLDPKLTALEPSKTTGAPIYPGFPKVTEVHHEQKASNSSASQRSLQMFKVTMSRILRLKIQMQEKHEAVMNVKKQTQKGNSKKVVQMEQELQDLQSQLCAEQAQQQARVEQLEKTFQEEEQHLQGLEIAQGEKDLKQQLAQALQEHWALMEELNRSKKDFEAIIQAKNKELEQTKEEKEKMQAQKEEVLSHMNDVLENELQSIICSEYFIEAVTLNCAHSFCSYCINEWMKRKIECPICRKDIKSKTYSLVLDNCINKMVNNLSSEVKERRIVLIRERKAKRLF [C403S]	increasing interaction

Reference: IntAct's records for PubMed 22531782
